Laboratory results from patent US20060241289A1 (RSR, published 2006).
Values belong to the binder of their own block, whether it stands above or below them.

Experiments:
[1] = biological target: TSH receptor coated onto plastic tubes or ELISA plate wells (RSR Ltd) / detergent solubilised TSH receptor; assay: Scatchard analysis, TSH receptors coated onto plastic tubes
[2] = biological target: T1, TSH receptor coated onto plastic tubes or ELISA plate wells (RSR Ltd) / detergent solubilised TSH receptor; assay: Scatchard analysis, 125I-IgG on TSH receptor coated tubes
T1 construct: also called TSHR coated tubes; TSH receptor coated tubes
Procedure: Unlabelled IgG or Fab in 50 μL of assay buffer and 50 μL of ¹²⁵I-labelled hMAb IgG or Fab (30,000 cpm in assay buffer) were incubated for 2 hours at room temperature with gentle shaking, washed twice with 1 mL of assay buffer and counted in a gamma counter.

- Ka [1]: 2e+10 M⁻¹
B1: 9D33 (antibody, V domains shown)
VH: DVQIQQPGTELVKPGASVRLSCKASGYTFTTYWMHWVKQRPGQGLEWIGEIDPSDSYTNYNQKFKGKATLTVDKSSSTAYMHLSSLTSEDSAVYYCSRNYGSGYYFDYWGQGTTLTVSS
VL: GVEMTQSPAIMSASPGEKVTMTCSASSSVSYMHWYQQKSGTSPKRWIYDTSKLASGVPARFSGSGSGTSYSLTISSMETEDAATYYCQQWSSNPWTFGGGTKLEIK
notes: Mouse monoclonal IgG; also called 9D33 IgG; mouse monoclonal antibody to the TSHR (9D33)

- Ka [2]: 5e+10 M⁻¹
B2: hMAb TSHR1 IgG (antibody, V domains shown)
VH: QVQLVQSGAEVKKPGESLKISCRGSGYRFTSYWINWVRQLPGKGLEWMGRIDPTDSYTNYSPSFKGHVTVSADKSINTAYLQWSSLKASDTGMYYCARLEPGYSSTWSVNWGQGTLVTVSS
VL: LTVLTQPPSVSGAPRQRVTISCSGNSSNIGNNAVNWYQQLPGKAPKLLIYYDDQLPSGVSDRFSGSRSGTSASLAIRGLQSEDEADYYCTSWDDSLDSQLFGGGTRLTVLG
notes: also called human monoclonal TSH receptor autoantibody; TSMAb TSHR1 IgG
